Measurements from patent US20150080245A1 (CATHOLIC UNIVERSITY INDUSTRY ACADEMIC COOPERATION FOUNDATION, published 2015).

Target: T1, cyclic citrullinated peptide (CCP) derived from filaggrin (X stands for citrulline (9th residue of HQCHQESTXGRSRGRCGRSGS); a chemical bond between the two underlined Cs (cyclic))
T1 construct: Synthesized peptide, coated on ELISA plates at 250 ng/well; also called Filaggrin-derived CCP; CCP peptide
T1 peptide: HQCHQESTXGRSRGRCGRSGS
Experiment: ELISA, coated CCP peptide, hybridoma supernatant diluted 1:1000
Description: For hybridoma selection, each of the CCP peptide and the CRP peptide, both previously prepared, was diluted to a final concentration of 250 ng/well in PBS or a carbonate buffer. The dilution was allocated in an amount of 50 μl into 96-well plates and incubated for 2 hrs at room temperature or overnight at 4° C. Each well was washed with 200 μl of PBS. To this end, the plates were overturned to decant the solution out of all the wells, and then struck down against paper towel to completely remove the remaining solution. […] After 30 min of the incubation, the color development was terminated with a stop solution, and color intensity to was immediately measured at 450 nm in a single point photo mode. […]
Repeated screening of the hybridoma cells against CCP and CRP left two clones 11G1 and 12G1 in the final stage (FIGS. 7 and 8). FIGS. 6 to 8 list binding intensities of anti-CCP antibodies when they recognized and bound to the target peptide CCP in each screening stage of the hybridomas, as measured by absorbance at 450 nm. […] With reference made to these marked values, how effectively each hybridoma clone produced an anti-CCP antibody was analyzed, and selection was made of effective clones which were then cultured many times so that the effective clones producing anti-CCP antibodies only predominated over other clones.

B1: monoclonal antibody 12G1 produced from the 12G1 hybridoma cell line (accession No. KCLRF-BP-00276) (antibody, V domains shown)
VH: EVKLEESGAELVRPGTSVKISCKASGYGFTNYWLGWIKQRPGHGLEWIGDVYPGSGNTYYNEKFKGKATLTADKSSSTVYMQLSSLTSEDSTVYFCAREGGITTAPYPFGYWGQGTLVTVSA
VL: DIVMTQTPSSMYASLGERVTITCKASQDINSYLSWFQQKPGKSPKTLIYRANRLVDGVPSRFSGSGSGQDYSLTISSLEYEDMGIYYCLQYDEFPWTFGGGTKLEIK
notes: Mouse monoclonal antibody from a hybridoma, detected with anti-mouse IgG; Used as hybridoma supernatant or as purified antibody; also called 12G1 antibody
binding result: binds
